{
  "source": "patent US20250034527A1",
  "about": "(Stanford University, published 2025)",
  "key": {"Fzd2 CRD [1]": {"target": "T1, Fzd2 CRD (human, UniProt Q14332 34-153)", "assay": "yeast surface display of DFB, titration with biotinylated Fzd CRD, flow cytometry; yeast titration, Fz2", "from_the_text": "(§1) To understand the affinity of individual DFBs towards different Fzd CRDs, two different methods were used to measure the specificity and affinity. DFBs were expressed on yeast surface and the yeast stained with biotinylated Fzd CRDs. The cells were washed and Streptavidin, Alexa Fluor™ 647 conjugates were used to stain the yeasts. The fluorescence signals were read on flow cytometry."}, "Fzd1 CRD [2]": {"target": "T2, Fzd1 CRD (human, UniProt Q9UP38 111-230)", "assay": "yeast surface display of DFB, titration with biotinylated Fzd CRD, flow cytometry; yeast titration, Fz1", "from_the_text": "as §1"}, "Fzd7 CRD [3]": {"target": "T3, Fzd7 CRD (human, UniProt O75084 44-163)", "assay": "yeast surface display of DFB, titration with biotinylated Fzd CRD, flow cytometry; yeast titration, Fz7", "from_the_text": "as §1"}, "Fzd7 CRD [4]": {"target": "T3, Fzd7 CRD", "assay": "SPR, biotinylated Fzd CRD captured on SA chip, DFB as analyte; SPR, Fzd7", "protocol": "(§2) Second, individual DFB proteins were purified and surface Plasmon Resonance (SPR) used to measure the affinity between Fzd CRD with the DFB. The biotinylated Fzd CRD was captured on SA sensor chip at low density. A gradient concentration of DFB analyte was flown over the chip. The data was analyzed by BIACore accompanying software."}, "Fzd7 CRD [5]": {"target": "T3, Fzd7 CRD", "assay": "SPR: biotinylated Fzd7 CRD captured on an SA chip, 1AF34 as analyte, 63 nM down to 0.24 nM", "protocol": "as §2"}, "Fzd8 CRD [6]": {"target": "T4, Fzd8 CRD (human, UniProt Q9H461 30-151, limits assumed, biotinylated)", "T4 construct": "domain: CRD; Species 'human' comes from the specificity statements; also called Fz8; frizzled 8 cysteine rich domain", "T4 sequence (looked up)": "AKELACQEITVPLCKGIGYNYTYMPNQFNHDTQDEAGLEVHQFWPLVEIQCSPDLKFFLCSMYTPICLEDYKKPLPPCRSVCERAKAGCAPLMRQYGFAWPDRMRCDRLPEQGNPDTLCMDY", "assay": "SPR, biotinylated Fzd CRD captured on SA chip, DFB as analyte; SPR, Fzd8", "protocol": "as §2"}, "Fzd7 CRD [7]": {"target": "T3, Fzd7 CRD", "assay": "SPR, biotinylated Fzd CRD captured on SA chip, DFB as analyte", "protocol": "as §2"}, "Fzd5 CRD [8]": {"target": "T5, Fzd5 CRD (human, UniProt Q13467 28-150, limits assumed, biotinylated)", "T5 construct": "domain: CRD; Species 'human' comes from the specificity statements; also called Fz5; frizzled 5 cysteine rich domain", "T5 sequence (looked up)": "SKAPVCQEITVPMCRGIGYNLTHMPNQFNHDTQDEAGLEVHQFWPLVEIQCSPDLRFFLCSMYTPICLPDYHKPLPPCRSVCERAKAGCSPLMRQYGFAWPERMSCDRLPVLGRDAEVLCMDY", "assay": "yeast surface display titration with biotinylated Fzd CRD, flow cytometry"}, "Fzd8 CRD [9]": {"target": "T4, Fzd8 CRD", "assay": "SPR: biotinylated Fzd8 CRD captured on an SA chip, 1AF34F7 as analyte, 1 uM down to 0.24 nM", "protocol": "as §2"}, "Fzd8 CRD [10]": {"target": "T4, Fzd8 CRD", "assay": "SPR, biotinylated Fzd CRD captured on SA chip, DFB as analyte", "protocol": "as §2"}, "Fzd4 CRD [11]": {"target": "T6, Fzd4 CRD (human, UniProt Q9ULV1 40-161, limits assumed, biotinylated)", "T6 construct": "domain: CRD; also called Fz4; frizzled 4 cysteine rich domain", "T6 sequence (looked up)": "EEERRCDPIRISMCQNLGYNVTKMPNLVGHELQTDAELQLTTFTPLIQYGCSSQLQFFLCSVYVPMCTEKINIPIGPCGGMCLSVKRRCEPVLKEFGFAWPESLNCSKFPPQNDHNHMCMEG", "assay": "yeast surface display of ANK12, staining with biotinylated Fzd CRD and streptavidin-Alexa Fluor 647, flow cytometry", "from_the_text": "as §1"}, "Fzd1 CRD [12]": {"target": "T2, Fzd1 CRD", "assay": "yeast surface display of ANK12, staining with biotinylated Fzd CRD and streptavidin-Alexa Fluor 647, flow cytometry", "from_the_text": "as §1"}, "Fzd2 CRD [13]": {"target": "T1, Fzd2 CRD", "assay": "yeast surface display of ANK12, staining with biotinylated Fzd CRD and streptavidin-Alexa Fluor 647, flow cytometry", "from_the_text": "as §1"}, "Fzd7 CRD [14]": {"target": "T3, Fzd7 CRD", "assay": "yeast surface display of ANK12, staining with biotinylated Fzd CRD and streptavidin-Alexa Fluor 647, flow cytometry", "from_the_text": "as §1"}, "Fzd8 CRD [15]": {"target": "T4, Fzd8 CRD", "assay": "yeast surface display of DFB, titration with biotinylated Fzd CRD, flow cytometry", "from_the_text": "as §1"}, "Fzd5 CRD [16]": {"target": "T5, Fzd5 CRD", "assay": "yeast surface display of DFB, titration with biotinylated Fzd CRD, flow cytometry", "from_the_text": "as §1"}, "Fzd4 CRD [17]": {"target": "T6, Fzd4 CRD", "assay": "SPR, biotinylated Fzd CRD captured on SA chip, DFB as analyte", "protocol": "as §2"}, "Fzd1 CRD [18]": {"target": "T2, Fzd1 CRD", "assay": "yeast surface display of 4AF30, staining with biotinylated Fzd CRD and streptavidin-Alexa Fluor 647, flow cytometry", "from_the_text": "as §1"}, "Fzd2 CRD [19]": {"target": "T1, Fzd2 CRD", "assay": "yeast surface display of 4AF30, staining with biotinylated Fzd CRD and streptavidin-Alexa Fluor 647, flow cytometry", "from_the_text": "as §1"}, "Fzd5 CRD [20]": {"target": "T5, Fzd5 CRD", "assay": "yeast surface display of 4AF30, staining with biotinylated Fzd CRD and streptavidin-Alexa Fluor 647, flow cytometry", "from_the_text": "as §1"}, "Fzd4 CRD [21]": {"target": "T6, Fzd4 CRD", "assay": "yeast surface display of DFB, titration with biotinylated Fzd CRD, flow cytometry", "from_the_text": "as §1"}},
  "data": [
    {"binder": "1AF34 (designed binder, Engineered ankyrin-repeat protein; Display fusion and tags are not described; also called DFB) SELGTRLIRAALDGNKDRVKDLIENGADVNASLMSGATPLHAAAMNGHKEVVKLLISKGADVNAQSVAGSTPLDAAAFSGHKEVVKLLISKGADVNAVNAAGLTPLHAAADNGHKEVVKLLISKGADVNAKADHGMTPLHFAAQRGHKEVVKLLISKGADLNTSAKDGATPLDMARESGNEEVVKLLEKQLE", "values": [
      {"measurement": "EC50", "setting": "Fzd2 CRD [1]", "result": 31.6, "unit": "nM"},
      {"measurement": "EC50", "setting": "Fzd1 CRD [2]", "result": 19, "unit": "nM"},
      {"measurement": "EC50", "setting": "Fzd7 CRD [3]", "result": 5.6, "unit": "nM"},
      {"measurement": "Kd", "setting": "Fzd7 CRD [4]", "result": 1, "unit": "nM"},
      {"measurement": "Kd", "setting": "Fzd7 CRD [5]", "result": 1.3, "unit": "nM"},
      {"measurement": "Kd", "setting": "Fzd8 CRD [6]", "result": 23, "unit": "nM"}
    ]},
    {"binder": "1AF34F7 (designed binder, Engineered ankyrin-repeat protein; Display fusion and tags are not described; also called DFB) SELGTRLIRAALDGNKDRVKDLIENGADVNASLMSGATPLHAAAMNGHKEVVKLLISKGADVNAQSVAGSTPLDAAAFSGHKEVVKLLISKGADVNAVNAAGLTPLHDAADDGHNEVVKLLISKGADVNAKADHGMTPLHFAAQRGHKEVVKLLISKGADLNTSAKDGATPLDMARESGNEEVVKLLEKQLE", "values": [
      {"measurement": "Kd", "setting": "Fzd7 CRD [7]", "result": 1.6, "unit": "nM"},
      {"measurement": "EC50", "setting": "Fzd2 CRD [1]", "result": 9.9, "unit": "nM"},
      {"measurement": "EC50", "setting": "Fzd1 CRD [2]", "result": 7.5, "unit": "nM"},
      {"measurement": "binding result", "setting": "Fzd5 CRD [8]", "result": "no binding (tested: 1 µM)"},
      {"measurement": "EC50", "setting": "Fzd7 CRD [3]", "result": 1.8, "unit": "nM"},
      {"measurement": "Kd", "setting": "Fzd8 CRD [9]", "result": 2600, "unit": "nM"}
    ]},
    {"binder": "ANK12 (designed binder, Engineered ankyrin-repeat protein; Display fusion and tags are not described; also called DFB) SELGKRLIMAALDGNKDRVKDLIENGADVNASLVSGATPLHAAAMNGHKEVVKLLISKGADVNAQSAAGSTPLAAAAINGHKEVVKLLISKGADVNAVTAAGMTPLHAAAANGHKEVVKLLISKGADVNAKADRGMTPLHFAAWRGHKEVVKLLISKGADLNTSAKDGATPLDMARESGNEEVVKLLEKQLE", "values": [
      {"measurement": "Kd", "setting": "Fzd8 CRD [10]", "result": 0.2, "unit": "nM"},
      {"measurement": "binding result", "setting": "Fzd4 CRD [11]", "result": "no binding (tested: 1000 nM)"},
      {"measurement": "binding result", "setting": "Fzd1 CRD [12]", "result": "no binding (tested: 1000 nM)"},
      {"measurement": "binding result", "setting": "Fzd2 CRD [13]", "result": "no binding (tested: 1000 nM)"},
      {"measurement": "binding result", "setting": "Fzd7 CRD [14]", "result": "no binding (tested: 1000 nM)"},
      {"measurement": "EC50", "setting": "Fzd8 CRD [15]", "result": 3.6, "unit": "nM"},
      {"measurement": "EC50", "setting": "Fzd5 CRD [16]", "result": 4.4, "unit": "nM"}
    ]},
    {"binder": "4AF30 (designed binder, Engineered ankyrin-repeat protein; Display fusion and tags are not described; also called DFB) SELGKRLIRAALDGNKDRVKDLIENGADVNASLMSGTTPLYAAAMNGHKEVVKLLISKGADVNAQSVAGSTPLVAAANFGHNEVVKLLISKGADVNAVTAFGVTPLHAAAADGHKEVVKLLISKGADVNAKAGRGMTPLHIAAFRGHKEVVKLLISKGADLNTSAKDGATPLDMARESGNEEVVKLLEKQLE", "values": [
      {"measurement": "Kd", "setting": "Fzd8 CRD [10]", "result": 400, "unit": "nM"},
      {"measurement": "Kd", "setting": "Fzd4 CRD [17]", "result": 1.4, "unit": "nM"},
      {"measurement": "binding result", "setting": "Fzd1 CRD [18]", "result": "no binding (tested: 1000 nM)"},
      {"measurement": "binding result", "setting": "Fzd2 CRD [19]", "result": "no binding (tested: 1000 nM)"},
      {"measurement": "binding result", "setting": "Fzd5 CRD [20]", "result": "no binding (tested: 1000 nM)"},
      {"measurement": "EC50", "setting": "Fzd4 CRD [21]", "result": 1.6, "unit": "nM"}
    ]}
  ]
}
